Source: US20070184522A1, “Cell death modulation via antagonists of Fasl and Fas activation” (University of Pittsburgh of the Commonwealth System of …, priority 2004, published 2007)

Target: T1, Fas on Jurkat cells (Homo sapiens, UniProt P25445)
T1 construct: endogenous in cells; host or cells: Jurkat
T1 sequence (P25445 26-335): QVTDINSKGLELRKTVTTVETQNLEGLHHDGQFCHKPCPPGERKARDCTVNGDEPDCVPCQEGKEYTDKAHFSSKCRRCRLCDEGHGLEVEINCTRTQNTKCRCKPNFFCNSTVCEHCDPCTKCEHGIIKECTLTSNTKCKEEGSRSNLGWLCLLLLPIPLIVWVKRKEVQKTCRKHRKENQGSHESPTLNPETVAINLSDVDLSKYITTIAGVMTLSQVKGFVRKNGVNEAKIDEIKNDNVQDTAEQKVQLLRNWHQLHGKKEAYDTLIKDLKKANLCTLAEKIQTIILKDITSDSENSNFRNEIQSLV
Assay: Immunostaining of cell surface FasL binding on Jurkat cells
Format: cell-based
Conditions: 4° C. 30 minutes
Description: This antibody also recognizes Fas-Fc which is also tagged at the C-terminus by His. In FIG. 2b, a fixed amount of purified recombinant Fas-ligand was added to Fas-Fc in the absence or presence of increasing amounts of AlphaMet as indicated. Samples were subjected to pull down using proteinA agarose followed by Western blot using a polyclonal rabbit anti-FasL antibody. […] Fas ligand (1 μg/ml) was coated in the wells of a microtiter plate (triplicate wells) then 1 μg/ml of Fas-Fc was added in the absence or presence of an increasing amount of the indicated polypeptide. A 13 mer YLGA polypeptide derived from FasL also was synthesized and used. The control peptide was a scrambled 13 mer. Anti human IgM-HRP conjugates were used to detect the bound Fas-Fc. […] One-way ANOVA was carried out for determination of statistical significance. […] Cells (3×10^5) were plated in 24-well plates having Poly-L-Lysine pre-treated cover glass. 2 μg/ml of Fas ligand was added and the cells were incubated for 30 min on ice. Cells were then washed by PBS twice, and were subjected to immunostaining using anti-Fas ligand antibody and fluorescent microscopy. […]
Abrogation of Fas-FasL binding by the presence of the synthetic polypeptides corresponding to the AlphaMet YLGA (SEQ ID NO:1) motif was then analyzed. […]

B1: alpha subunit of Met (AlphaMet), amino acid residues 1 to 306, His-tagged (receptor, mouse)
chain: MKAPTVLAPGILVLLLSLVQRSHGECKEALVKSEMNVNMKYQLPNFTAETPIQNVVLHGHHIYLGATNYIYVLNDKDLQKVSEFKTGPVLEHPDCLPCRDCSSKANSSGGVWKDNINMALLVDTYYDDQLISCGSVNRGTCQRHVLPPDNSADIQSEVHCMFSPEEESGQCPDCVVSALGAKVLLSEKDRFINFFVGNTINSSYPPGYSLHSISVRRLKETQDGFKFLTDQSYIDVLPEFLDSYPIKYIHAFESNHFIYFLTVQKETLDAQTFHTRIIRFCSVDSGLHSYMEMPLECILTEKRRKRHHHHHH
cell surface FasL binding to Fas: blocked
